The record followed here is US20100209346A1.

Assay in all cases: dot blot; antigen dilution series 100-0.01 pmol on nitrocellulose
Assay [1] addresses HFIP-treated Aβ(1-42) monomer of example 1a (human).
The target in assay [2] is Aβ(1-42) fibril preparation of example 27 (human).
Assay [3] concerns the target Aβ(1-42) oligomer B preparation of example 6b (oligomers of human amyloid β(1-42) protein with apparent molecular weights of 38 kDa and 48 kDa) (human).

Consider monoclonal antibody 6E10 (Signet), for which the detection limit (minimum amount of antigen visible) stood at 0.1 pmol in assay [1], 1 pmol in assay [2] and 0.1 pmol in assay [3].
